{
  "source": "the nanobody polyreactivity screen of Harvey et al. (2022)",
  "data": [
    {"test": "yeast display, Sf9 membrane polyspecificity reagent, FACS + sequencing; frameworks hold sequencing errors", "in_short": "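Using colony PCR, genes from sorted yeast display clones were amplified, then sequenced on MiSeq at 2 × 250 and filtered by CDR length. The clones had been stained with 10% biotinylated, detergent-solubilized Sf9 membrane reagent for 1 hour at 4 °C and sorted by FACS into low and high (top ~1%) gates on anti-HA and streptavidin fluorescence. Polyreactivity labels come from the gate of origin.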", "values": [
      {"sequence": "QVQLVESGGGLVQAGGSLRLSCAASGSTFSRNAMGWYRQAPGKERELVASITRGGSTYADSVKGRFTISRDNAKNTVYLQMNSLKPEDTAVYYCAKSVTGWRGLWYTPRNYYWGQGTQVTVSS", "polyreactivity (PSR sort gate)": "high polyreactivity"},
      {"sequence": "QVQLVESGGGLVQAGGSLRLSCAASGSTFSRYAMGWYRQAPGKERDLVAAISWGGNTYYADSVKGRFTISRDNAKNTVYLQMNSLKPEDTAVYYCNRYSKLYNTMDYWGQGTQVTVSS", "polyreactivity (PSR sort gate)": "high polyreactivity"},
      {"sequence": "QVQLVESGGGLVQAGGSLRLSCAASGSTFSRYAMGWYRQAPGKERELVAAISRGGNTYYADSVKGRFTISRDNAKNTVYLQMNSLKPEDTAVYYCNRYSKLYNTMDYWGQGTQVTVSS", "polyreactivity (PSR sort gate)": "high polyreactivity"},
      {"sequence": "QVQLVESGGGLVQAGGSLRLSCAASGSTFSRYAMGWYRQAPGKERELVAAISWGGNTYYADSVKGRFTISRDNAKNTVYFQMNSLKPEDTALYYCATEVRYQGWRDYWGQVTQVTVSS", "polyreactivity (PSR sort gate)": "high polyreactivity"},
      {"sequence": "QVQLVESGGGLVQAGGSLRLSCAASGSTFSRYAMGWYRQAPGKERELVAAISWGGNTYYADSVKGRFTISRDNAKNTVYLQMNSLKPEDTAVYYCNRYTKLYNTMDYWGQGTQVTVSS", "polyreactivity (PSR sort gate)": "high polyreactivity"},
      {"sequence": "QVQLVESGGGLVQAGGSLRLSCAASGSTFSRYAMGWYRQAPGKERELVAAITRSGGGTHYADSVKGRFTISRDNAKNTVYLQMNSLKPEDTAVYYCNVAGVLYPFVSYDYWGQGTQVTVSS", "polyreactivity (PSR sort gate)": "low polyreactivity"},
      {"sequence": "QVQLVESGGGLVQAGGSLRLSCAASGSTFSRYTMGWYRQAPGKERELVAAIRRSGASTYYADSVKGRFTISRDNAKNTVYLQMNSLKPEDTAVYYCAVGRYRYGYWGQGTQVTVSS", "polyreactivity (PSR sort gate)": "high polyreactivity"},
      {"sequence": "QVQLVESGGGLVQAGGSLRLSCAASGSTFSRYTMGWYRQAPGKERELVASITRGGSTNYADSVKGRFTISRDNAKNTVYLQMNSLKPEDTAVYYCAARTARVSRYDYWGQGTQVTVSS", "polyreactivity (PSR sort gate)": "high polyreactivity"},
      {"sequence": "QVQLVESGGGLVQAGGSLRLSCAASGSTFSSNAMGWYRQAPGKERELVAAISSGGSTNYADSVKGRFTISRDNAKNTVYLQMNSLKPEDTAVYYCAADRSPEYYWGQGTQVTVSS", "polyreactivity (PSR sort gate)": "low polyreactivity"},
      {"sequence": "QVQLVESGGGLVQAGGSLRLSCAASGSTFSSYAMGWYRPAPGKERELVARITSGGSTYYADSVKGRFTISRDNAKNTVYLQMNSLKPEDTAVYYCAARGYYYRSRVSQFKYDYWGQGTQVTVSS", "polyreactivity (PSR sort gate)": "high polyreactivity"},
      {"sequence": "QVQLVESGGGLVQAGGSLRLSCAASGSTFSSYAMGWYRQAPGKERELVAAISTSGGRTYYADSVKGRFTISRDNAKNTVYLQMNSLKPEDTAVYYCAKKGIGYVRYYYWGQGTQVTVSS", "polyreactivity (PSR sort gate)": "high polyreactivity"},
      {"sequence": "QVQLVESGGGLVQAGGSLRLSCAASGSTFSSYAMGWYRQAPGKERELVAAITSGGSTNYADSVKGRFTISRDNAKNTVYLQMNSLKPEDTAVYYCNAQINDFIFVYDYWGQGTQVTVSS", "polyreactivity (PSR sort gate)": "low polyreactivity"},
      {"sequence": "QVQLVESGGGLVQAGGSLRLSCAASGSTFSSYGMGWYRQAPGKERELVASITIRGGSTYYADSVKGRFTISRDNAKNTVYLQMNSLKPEDTAVYYCAADVTNRGTWVIYGYYYWGQGTQVTVSS", "polyreactivity (PSR sort gate)": "low polyreactivity"},
      {"sequence": "QVQLVESGGGLVQAGGSLRLSCAASGSTFSSYTMGWYRQAPGKERELVATINSRGDNTYYADSVKGRFTISRDNAKNTVYLQMNSLKPEDTAVYYCAARSRRHDFDYWGQGTQVTVSS", "polyreactivity (PSR sort gate)": "high polyreactivity"},
      {"sequence": "QVQLVESGGGLVQAGGSLRLSCAASGSTFSTNAMGWYRQAPGKERELVARISAGRTNYADSVKGRFTISRDNAKNTVYLQMNSLKPEDTAVYYCNADYQYNRYSRVVGGHYYWGQGTQVTVSS", "polyreactivity (PSR sort gate)": "low polyreactivity"},
      {"sequence": "QVQLVESGGGLVQAGGSLRLSCAASGSTFSTYAMGWYRQAPGKERELVAAIRWSGGSTYYADSVKGRFTISRDNAKNTVYLQMNSLKPEDTAVYYCATDAPDRTDSDSGFDAGYDYWGQGTQVTLSS", "polyreactivity (PSR sort gate)": "low polyreactivity"},
      {"sequence": "QVQLVESGGGLVQAGGSLRLSCAASGSTFSTYAMGWYRQAPGKERELVAAITSSGGSTYYADSVKGRFTISRDNAKNTVYLQMNSLKPEDTAVYYCAAGRGYWWWYGYDYWGQGTQVTVSS", "polyreactivity (PSR sort gate)": "low polyreactivity"},
      {"sequence": "QVQLVESGGGLVQAGGSLRLSCAASGSTFSTYAMGWYRQAPGKERELVARITVSVGSTYYADSVKGRFTMSRDNAKNTVYLQMNSLKPEDTAVYYCAVGSDEVYFVGDYEYWGQGTQVTVSS", "polyreactivity (PSR sort gate)": "low polyreactivity"},
      {"sequence": "QVQLVESGGGLVQAGGSLRLSCAASGSTFSVNAMGWYRQAPGKEREFVAAITGDGVTTYYADSVKGRFTISRDNAKNTVYLQMNSLKPEDTAVYYCAAEDIRQTTGYDYWGQGTQVTVSS", "polyreactivity (PSR sort gate)": "high polyreactivity"},
      {"sequence": "QVQLVESGGGLVQAGGSLRLSCAASGSTFSVNAMGWYRQAPGKEREFVARITWRGGSTYYADSVKRRFTISRDNAKNTVYLPMNSLKPEDTAVYYCAATLRYWWRSSYEDYYWGQGTQVTVSS", "polyreactivity (PSR sort gate)": "low polyreactivity"},
      {"sequence": "QVQLVESGGGLVQAGGSLRLSCAASGSTFSVYAMGWYRQAPGKERELVASISSSVGRTFYADSVKGRFTISRDNSKNTVYLQMNSLKPEDTAVYYCNAGVRYSGFDYWGQGTQVTVSS", "polyreactivity (PSR sort gate)": "high polyreactivity"},
      {"sequence": "QVQLVESGGGLVQAGGSLRLSCAASGSTFSVYGMGWYRQGPGKERELVAAISGYGSRRYYADSLKGRFTISRDNAKNTVYLQMNSLKPEDTAVYYCAAVRRLLQGRTMYYWGQGTQVTVSS", "polyreactivity (PSR sort gate)": "high polyreactivity"},
      {"sequence": "QVQLVESGGGLVQAGGSLRLSCAASGSTFSVYTMGWYRQAPGKERELVAAITSGGTYYADSVKGRFTISRDNAKNTVYLQMNSLKPEDTAVYYCAADVLSVGKHYDYWGQCTQVTVSS", "polyreactivity (PSR sort gate)": "low polyreactivity"},
      {"sequence": "QVQLVESGGGLVQAGGSLRLSCAASGSTFSVYTMGWYRQAPGKERELVATISGGGSTYYADSVKGRFTISRDNAKNTVYLQMNSLKPEDTAVYYCNAQGYGIFTSSLDYWGQGTQVTVSS", "polyreactivity (PSR sort gate)": "low polyreactivity"},
      {"sequence": "QVQLVESGGGLVQAGGSLRLSCAASGSTFSWNTMGWYRQAPGKERELVAAISRRGGSTYYADSVKGRFTISRDNAKNTVYLQMNSLKPEDTAVYYCNAKYYYGHRPATAGRYYYWGQGTQVTVSS", "polyreactivity (PSR sort gate)": "high polyreactivity"},
      {"sequence": "QVQLVESGGGLVQAGGSLRLSCAASGSTFSWYAMGWYRQAPGKERELVATITGSGGSTYYADSVKGRFTISRDNAKNTVYLQMNSLKPEDTAVYYCALDRGYTRWIASHSYQYDYWGQGTQETVSS", "polyreactivity (PSR sort gate)": "low polyreactivity"},
      {"sequence": "QVQLVESGGGLVQAGGSLRLSCAASGSTFSWYSMGWYRQAPGKQRELVAAISSRGGRTYYADSVKGRFTISRDNAKNTVYLQMNSLKPDDTAVYFCAARSRRGEYDYWGQGTQVTVSS", "polyreactivity (PSR sort gate)": "high polyreactivity"},
      {"sequence": "QVQLVESGGGLVQAGGSLRLSCAASGSTFSYNAMGWYRQAPGKERELVAAIRTSGGRTYYADSVKGRFTISRDNAKNTVYLQMNSLKPEDTAVYYCAKRWVYRYGYEYWGQGTQVTVSS", "polyreactivity (PSR sort gate)": "high polyreactivity"},
      {"sequence": "QVQLVESGGGLVQAGGSLRLSCAASGSTFSYNAMGWYRQAPGKERELVAAISKSGGSTSYADSVKGRFTISRDNAKNTVYLQMNSQKPEDTAVYYCNARYSRKYGYWGQGTQVTVSS", "polyreactivity (PSR sort gate)": "high polyreactivity"},
      {"sequence": "QVQLVESGGGLVQAGGSLRLSCAASGSTFSYNAMGWYRQAPGKERELVAAISRGDVSTYYADSVKGRFTISRDNAKNTVYLQMNSLKPEDTAVYYCAAYWYGSQYKWRYDYWGQGTQVTVSS", "polyreactivity (PSR sort gate)": "low polyreactivity"},
      {"sequence": "QVQLVESGGGLVQAGGSLRLSCAASGSTFSYYAMGWYRQAPGKERELVAAITTSGGRTYYADSVKGRFTISRDNAKNTVYLQMNSLKPEDTAVYYCNARSGRLGDYWGQGTQVTVSS", "polyreactivity (PSR sort gate)": "high polyreactivity"},
      {"sequence": "QVQLVESGGGLVQAGGSLRLSCAASGSTFSYYGMGWSRQAPGKERELVAAISWSGGSTYYADSVKGRFTISRDNAKNTVYLQMNSLKPEDTAVYYCARLDSAAEPRQYDYWGQGTQVTVSS", "polyreactivity (PSR sort gate)": "high polyreactivity"},
      {"sequence": "QVQLVESGGGLVQAGGSLRLSCAASGSTFSYYPMGWYREAPGQERELVAAISSRGSSTYYADSVKGRFTISRDNAKNTVYLQMNSLKPEDTAVYYCNAERVVYKWYDYWGQVTQVTVSS", "polyreactivity (PSR sort gate)": "high polyreactivity"},
      {"sequence": "QVQLVESGGGLVQAGGSLRLSCAASGSTFSYYTMGWYRQAPGKEREFVAAISNSGSRTYYADSVKGRFTISRDNAKNTVYLQMNSLKPEDTAVYYCNAAYGYRFPRDYWGQGTQVIVSS", "polyreactivity (PSR sort gate)": "high polyreactivity"},
      {"sequence": "QVQLVESGGGLVQAGGSLRLSCAASGSTFTANALGWYRQAPGKERELVAAITKSGGDTYYADSVKGRFTISRDNAKNTVYLQMNSLKPEDTAVYYCAAESSYFVALTQFYTVEFYYWGQGTQVTVSS", "polyreactivity (PSR sort gate)": "low polyreactivity"},
      {"sequence": "QVQLVESGGGLVQAGGSLRLSCAASGSTFTAYGMGWYRQAPGKERELVAAITWRGGRTYYADSVKGRFTISRDNAKNTVYLQMNSLKPEDTAVYYCAKGAVWRYTTKYGYDYWGQGTQVTVSS", "polyreactivity (PSR sort gate)": "high polyreactivity"},
      {"sequence": "QVQLVESGGGLVQAGGSLRLSCAASGSTFTAYTMGWYRQAPGKERELVAAISKIGTRTYYADSVKGRFTISRDNAKNTVYLQMNSLKPEDTAVYYCATGRSRVYNGRGDYWGQGTQVTVSS", "polyreactivity (PSR sort gate)": "high polyreactivity"},
      {"sequence": "QVQLVESGGGLVQAGGSLRLSCAASGSTFTDYAMGWYRQAPGKERELVAAIDSGGITNYADSVKGRFTISRDNAKNTVYLQMNSLKPEDTAVYYCAVEGEYLTPSGRYRLDYWGQGTQVTVSS", "polyreactivity (PSR sort gate)": "low polyreactivity"},
      {"sequence": "QVQLVESGGGLVQAGGSLRLSCAASGSTFTDYDMGWYRQAPGKERELVAAITSGGSTNYADSVKGRFTISRDNAKNTVYLQMISLKPEDTAVYYCAAADADRKYDYWGQGTQVTVSS", "polyreactivity (PSR sort gate)": "low polyreactivity"},
      {"sequence": "QVQLVESGGGLVQAGGSLRLSCAASGSTFTDYTMGWYRQAPGKERELVAVISQSGGSTYYADSVKGRFTISRDNAKNTVYLQMNSLKPEDTAVYYCAADPREDNQDRYYWGQGTQVTVSS", "polyreactivity (PSR sort gate)": "high polyreactivity"},
      {"sequence": "QVQLVESGGGLVQAGGSLRLSCAASGSTFTFYAMGWYRQAPGKERELVATISSSGGSTYYADSVKGRFTISRDNAKNTVYLQMNSLKPEDTAVYYCTATTAPRDGKWQGGMDYWGQGTQVTVSS", "polyreactivity (PSR sort gate)": "low polyreactivity"},
      {"sequence": "QVQLVESGGGLVQAGGSLRLSCAASGSTFTGNAMGWYRQAPGKERELVASIRSGATTYYADSVKGRFTISRDNAKNTVYLQMNSLKPEDTAVYYCAKRYLGRRGDVYYWGQGTQVTVSS", "polyreactivity (PSR sort gate)": "high polyreactivity"},
      {"sequence": "QVQLVESGGGLVQAGGSLRLSCAASGSTFTGNDMGWYRQAPGKERELVASIRRGDRTYYADSVKGRFTISRDNAKNTVYLQMNSLKREDTAVYYCAKPVWWRVYRHGGRFGYWGQGTQVTVSS", "polyreactivity (PSR sort gate)": "low polyreactivity"}
    ]}
  ]
}
